# Source: patent US20240270841A1 (LG CHEM, published 2024)
# What was measured:
# [1] = molecular target: T1, human LILRA4 overexpressed on CHO cells (human, UniProt P59901 24-499); assay: flow cytometry (iQue screener), CHO cells overexpressing LILRA4, anti-human Fc-biotin + streptavidin-PE [panel LILRA4]
# T1 construct: Full-length protein expressed in CHO cells; also called NP_036408
# Method: (§1) In order to confirm whether or not the selected antibodies bind to human LILR family proteins other than LILRB1, a cell surface binding assay was performed. The CHO cells (prepared in Example 5) expressing each of various LILR family proteins on surface were added to U-bottom 96-well tissue culture plate (BD Falcon) at the amount of 1×10⁵ cells/well. The cells in each well were treated with the selected antibody in the final concentration of 20 ug/mL and incubated at 4° C. for 60 minutes. After washing with FACS buffer, the cells were treated with anti-human Fc-biotin antibody (Invitrogen) and incubated at 4° C. for 30 minutes. After washing with FACS buffer, the cells were treated with streptavidin (BD Pharmigen) labeled with PE or FITC fluorescence and incubated at 4° C. for 30 minutes. After washing with FACS buffer, the cells were resuspended and subjected to analysis using iQue screener (Sartorius). The cells treated with each LILR protein specific antibody (Table 27) were used as a positive control, and the cells treated with human IgG4 isotype control antibody (Biolegend) were used as a negative control.
# [2] = molecular target: T2, human LILRB5 overexpressed on CHO cells (human, UniProt O75023 24-590); assay: flow cytometry (iQue screener), CHO cells overexpressing LILRB5, anti-human Fc-biotin + streptavidin-PE [panel LILRB5]
# T2 construct: Full-length protein expressed in CHO cells; also called NP_006831
# Method: as §1
# [3] = molecular target: T3, human LILRB4 overexpressed on CHO cells (human, UniProt Q8NHJ6 22-448); assay: flow cytometry (iQue screener), CHO cells overexpressing LILRB4, anti-human Fc-biotin + streptavidin-PE [panel LILRB4]
# T3 construct: Full-length protein expressed in CHO cells; also called NP_001265355
# Method: as §1
# [4] = molecular target: T4, human LILRA5 overexpressed on CHO cells (human, UniProt A6NI73 42-299); assay: flow cytometry (iQue screener), CHO cells overexpressing LILRA5, anti-human Fc-biotin + streptavidin-PE [panel LILRA5]
# T4 construct: Full-length protein expressed in CHO cells; also called NP_067073
# Method: as §1
# [5] = molecular target: T5, human LILRB3 overexpressed on CHO cells (human, UniProt O75022 24-631); assay: flow cytometry (iQue screener), CHO cells overexpressing LILRB3, anti-human Fc-biotin + streptavidin-PE [panel LILRB3]
# T5 construct: Full-length protein expressed in CHO cells; also called XP_006726377
# Method: as §1
# [6] = molecular target: T6, human LILRA1 overexpressed on CHO cells (human, UniProt O75019 17-489); assay: flow cytometry (iQue screener), CHO cells overexpressing LILRA1, anti-human Fc-biotin + streptavidin-PE [panel LILRA1]
# T6 construct: Full-length protein expressed in CHO cells; also called NP_006854
# Method: as §1
# [7] = molecular target: T7, human LILRB1 overexpressed on CHO cells (human, UniProt Q8NHL6 24-650); assay: flow cytometry (iQue) on CHO cells overexpressing LILRB1, threefold dilutions
# T7 construct: Full-length protein expressed from a vector in CHO cells; also called AAH15731
# Method: In order to determine EC₅₀ values of the antibodies prepared in Examples 1 and 4 for binding to human LILRB1-overexpressing cell lines, a cell surface binding assay was performed. Representing the prepared antibodies, EC₅₀ values of E3.1 and H11 antibodies were measured. The CHO cells prepared in Example 5, which overexpress LILRB1 on surface, were added to U-bottom 96-well tissue culture plate (BD Falcon) at the amount of 1×10⁵ cells/well. Threefold serial dilutions of E3.1 and H11 antibodies were prepared starting from the final concentrations of 600 ug/mL and 27 ug/mL, respectively. The cells were treated with each of the diluted antibodies and incubated at 4° C. for 60 minutes. After washing with FACS buffer, the cells were treated with anti-human Fc-biotin antibody (Invitrogen) and incubated at 4° C. for 30 minutes. After washing with FACS buffer, the cells were treated with streptavidin (BD Pharmigen) labeled with PE fluorescence and incubated at 4° C. for 30 minutes. After washing with FACS buffer, the cells were resuspended and subjected to analysis using iQue screener (Sartorius). EC₅₀ values were calculated using nonlinear regression formula of GraphPad Prism software, and the obtained results are shown in Table 28: […]
# [8] = molecular target: T8, human LILRA6 overexpressed on CHO cells (human, UniProt Q6PI73 24-481); assay: flow cytometry (iQue screener), CHO cells overexpressing LILRA6, anti-human Fc-biotin + streptavidin-PE [panel LILRA6]
# T8 construct: Full-length protein expressed in CHO cells; also called NP_001347096
# Method: as §1
# [9] = molecular target: T9, human LILRA3 overexpressed on CHO cells (human, UniProt Q8N6C8 24-439); assay: flow cytometry (iQue screener, BL1-H channel), CHO cells overexpressing LILRA3, anti-human Fc-biotin + labelled streptavidin [panel LILRA3]
# T9 construct: Full-length protein expressed in CHO cells; also called AAH28208
# Method: as §1
# [10] = molecular target: T10, human LILRB2 overexpressed on CHO cells (human, UniProt Q8N423 22-597); assay: flow cytometry (iQue screener), CHO cells overexpressing LILRB2, anti-human Fc-biotin + streptavidin-PE [panel LILRB2]
# T10 construct: Full-length protein expressed in CHO cells; also called AAH36827
# Method: as §1
# [11] = molecular target: T11, human LILRA2 overexpressed on CHO cells (human, UniProt Q8N149 24-483); assay: flow cytometry (iQue screener), CHO cells overexpressing LILRA2, anti-human Fc-biotin + streptavidin-PE [panel LILRA2]
# T11 construct: Full-length protein expressed in CHO cells; also called AAH17412
# Method: as §1
# [12] = molecular target: T12, LILRB1 expressed on the surface of human natural killer cell KHYG-1 (human, UniProt Q8NHL6 24-650); assay: flow cytometry (iQue) on KHYG-1 NK cells, antibody 50 ug/mL
# T12 construct: whole, on cells; also called LILRB1 on KHYG-1 cells; human NK cells (surface)
# Method: In order to test whether or not 93 antibodies selected in Example 1.4 bind LILRB1 expressed on surface of immune cells, natural killer cell (NK cell) surface binding assay was performed. A human NK cell, KHYG-1 cell (JCRB) was cultured in RPMI 1640 medium (Gibco) supplemented with 10%(w/v) of FBS (Gibco) and 100 U/mL of interleukin-2 (Novartis). KHYG-1 cells were added to a U-bottom 96-well tissue culture plate (BD Falcon) at the amount of 5×10⁴ cells/well. Each of the selected antibodies was added to the well to the final concentration of 50 μg/mL per well and incubated at 4° C. for 1 hour.
# In order to see the level of LILRB1-specific binding of the selected antibodies, a human IgG4 isotype control antibody (Biolegend) was treated in the same manner. After washing with FACS buffer, the cells were treated with an anti-human Fc-biotin antibody (life technologies) and incubated at 4° C. for 1 hour. After washing with FACS buffer, the cells were treated with streptavidin PE (BD Pharmigen) and incubated at 4° C. for 30 minutes. After washing with FACS buffer, the cells were resuspended and subjected to analysis using iQue screener (Sartorius).
# [13] = molecular target: T13, human LILRB1 protein (LILRB1-His, RnD systems Cat. No. 8989-T2) (human, UniProt Q8NHL6 24-458); assay: SPR (Biacore T200), antibody captured by anti-human IgG (Fc), LILRB1-His injected
# T13 construct: Bought protein; also called human LILRB1-His; not shown: His tag
# Method: The binding affinities of the 93 antibodies, which were selected in Example 1.3, to the antigen, LILRB1, were measured using Biacore T200 (GE healthcare). An anti-human IgG (Fc) antibody (GE healthcare, Cat. No. BR-1008-39, final concentration of 25 μg/mL) was flowed at the flow rate of 5 μL/min for 360 seconds to be immobilized at 5000-7000 RU on Series S Sensor Chip CM5 (GE healthcare, Cat. No. BR-1005-30) using Amine Coupling Kit (GE healthcare, Cat. No. BR-1000-508).
# T13 sequence (Q8NHL6 24-458 limits assumed): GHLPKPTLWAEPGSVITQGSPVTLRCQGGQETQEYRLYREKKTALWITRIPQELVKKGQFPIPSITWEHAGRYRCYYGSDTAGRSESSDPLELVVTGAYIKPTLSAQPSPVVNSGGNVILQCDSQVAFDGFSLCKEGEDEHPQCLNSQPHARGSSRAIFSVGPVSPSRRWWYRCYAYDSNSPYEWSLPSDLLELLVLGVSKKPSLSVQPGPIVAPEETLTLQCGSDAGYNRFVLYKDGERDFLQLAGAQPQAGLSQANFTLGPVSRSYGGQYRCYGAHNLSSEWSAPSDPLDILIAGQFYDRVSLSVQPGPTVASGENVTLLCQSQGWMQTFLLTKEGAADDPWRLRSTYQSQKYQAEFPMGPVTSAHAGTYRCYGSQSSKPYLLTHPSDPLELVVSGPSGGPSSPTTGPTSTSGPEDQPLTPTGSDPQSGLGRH
# T9 sequence (Q8N6C8 24-439 A105V limits assumed): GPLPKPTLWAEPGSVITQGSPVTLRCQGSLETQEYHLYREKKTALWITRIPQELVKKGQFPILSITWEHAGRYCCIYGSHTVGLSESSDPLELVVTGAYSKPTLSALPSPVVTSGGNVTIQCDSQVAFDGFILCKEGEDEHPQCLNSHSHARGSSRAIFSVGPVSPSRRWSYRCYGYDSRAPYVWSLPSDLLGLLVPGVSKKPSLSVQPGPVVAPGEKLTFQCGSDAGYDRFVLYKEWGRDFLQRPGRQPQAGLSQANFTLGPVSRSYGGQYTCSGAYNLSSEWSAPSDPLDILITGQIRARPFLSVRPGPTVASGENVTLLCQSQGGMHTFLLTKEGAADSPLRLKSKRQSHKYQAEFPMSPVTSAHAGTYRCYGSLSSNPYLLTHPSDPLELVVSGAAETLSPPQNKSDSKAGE
# T12 sequence (Q8NHL6 24-650): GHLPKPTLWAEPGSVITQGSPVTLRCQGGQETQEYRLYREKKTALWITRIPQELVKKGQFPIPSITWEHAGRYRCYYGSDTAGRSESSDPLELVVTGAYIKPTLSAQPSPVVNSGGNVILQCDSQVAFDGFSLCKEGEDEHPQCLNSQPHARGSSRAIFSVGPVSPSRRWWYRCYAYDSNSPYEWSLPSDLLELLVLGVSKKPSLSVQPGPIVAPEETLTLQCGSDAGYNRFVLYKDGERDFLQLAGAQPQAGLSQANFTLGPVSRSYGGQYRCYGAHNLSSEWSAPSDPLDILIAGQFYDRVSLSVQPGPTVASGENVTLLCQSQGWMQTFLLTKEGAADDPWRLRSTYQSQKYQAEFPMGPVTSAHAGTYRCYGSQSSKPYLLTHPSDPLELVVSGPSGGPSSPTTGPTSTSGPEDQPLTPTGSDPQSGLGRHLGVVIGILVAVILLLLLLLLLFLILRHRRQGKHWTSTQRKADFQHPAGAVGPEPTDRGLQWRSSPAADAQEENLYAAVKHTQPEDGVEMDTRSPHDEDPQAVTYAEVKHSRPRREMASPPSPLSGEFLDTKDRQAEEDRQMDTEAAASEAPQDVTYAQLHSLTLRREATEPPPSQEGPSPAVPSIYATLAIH
# T5 sequence (O75022 other isoform, or with tags, fused parts or gaps limits assumed): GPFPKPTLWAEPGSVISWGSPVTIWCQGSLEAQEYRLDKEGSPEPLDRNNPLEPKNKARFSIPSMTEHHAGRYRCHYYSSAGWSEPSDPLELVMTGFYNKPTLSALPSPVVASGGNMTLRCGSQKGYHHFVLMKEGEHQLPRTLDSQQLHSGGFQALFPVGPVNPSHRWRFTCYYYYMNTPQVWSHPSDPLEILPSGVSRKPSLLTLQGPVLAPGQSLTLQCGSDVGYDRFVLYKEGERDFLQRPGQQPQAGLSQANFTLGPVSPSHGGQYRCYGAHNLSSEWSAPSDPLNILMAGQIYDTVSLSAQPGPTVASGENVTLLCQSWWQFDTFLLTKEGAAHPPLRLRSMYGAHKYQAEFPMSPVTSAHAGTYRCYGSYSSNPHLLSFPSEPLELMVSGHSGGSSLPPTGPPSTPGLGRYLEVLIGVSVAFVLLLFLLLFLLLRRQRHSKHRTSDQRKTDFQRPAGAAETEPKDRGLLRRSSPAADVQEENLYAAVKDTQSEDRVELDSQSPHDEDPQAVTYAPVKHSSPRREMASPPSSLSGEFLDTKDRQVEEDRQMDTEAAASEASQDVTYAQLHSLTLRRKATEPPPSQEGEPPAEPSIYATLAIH
# T4 sequence (A6NI73 42-299 limits assumed): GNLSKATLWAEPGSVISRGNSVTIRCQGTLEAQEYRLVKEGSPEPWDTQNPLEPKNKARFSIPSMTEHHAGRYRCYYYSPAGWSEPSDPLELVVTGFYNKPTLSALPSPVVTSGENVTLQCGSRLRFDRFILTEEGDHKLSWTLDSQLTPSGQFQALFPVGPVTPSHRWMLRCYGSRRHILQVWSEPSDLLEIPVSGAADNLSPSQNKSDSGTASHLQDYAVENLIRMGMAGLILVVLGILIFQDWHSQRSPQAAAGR
# T1 sequence (P59901 other isoform, or with tags, fused parts or gaps limits assumed): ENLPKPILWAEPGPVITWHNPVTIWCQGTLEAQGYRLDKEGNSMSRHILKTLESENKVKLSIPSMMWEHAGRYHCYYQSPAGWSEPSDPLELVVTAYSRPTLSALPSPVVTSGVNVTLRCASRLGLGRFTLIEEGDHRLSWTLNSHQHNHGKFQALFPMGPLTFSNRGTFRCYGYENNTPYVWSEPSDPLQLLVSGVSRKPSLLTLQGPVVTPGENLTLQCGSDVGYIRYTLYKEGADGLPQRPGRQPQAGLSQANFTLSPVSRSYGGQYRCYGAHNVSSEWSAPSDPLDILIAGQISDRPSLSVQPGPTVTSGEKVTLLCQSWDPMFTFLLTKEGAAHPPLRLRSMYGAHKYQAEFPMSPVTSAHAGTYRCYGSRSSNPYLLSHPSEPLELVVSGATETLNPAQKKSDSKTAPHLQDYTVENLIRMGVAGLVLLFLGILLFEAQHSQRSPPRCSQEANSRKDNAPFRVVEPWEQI
# T3 sequence (Q8NHJ6 22-448 D223G/Q414R limits assumed): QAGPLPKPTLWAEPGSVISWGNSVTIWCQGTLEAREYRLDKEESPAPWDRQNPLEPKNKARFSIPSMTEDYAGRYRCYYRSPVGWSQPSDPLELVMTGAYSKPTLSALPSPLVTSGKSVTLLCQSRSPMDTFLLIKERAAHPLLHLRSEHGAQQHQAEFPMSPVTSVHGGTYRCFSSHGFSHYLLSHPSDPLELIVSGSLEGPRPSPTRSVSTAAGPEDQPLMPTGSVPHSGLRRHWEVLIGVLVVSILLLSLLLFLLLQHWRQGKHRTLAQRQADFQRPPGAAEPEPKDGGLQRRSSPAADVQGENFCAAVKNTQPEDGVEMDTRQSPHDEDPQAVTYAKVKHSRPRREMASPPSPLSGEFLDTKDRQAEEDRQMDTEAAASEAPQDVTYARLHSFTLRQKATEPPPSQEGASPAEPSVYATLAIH
# T2 sequence (O75023 24-590 P542R limits assumed): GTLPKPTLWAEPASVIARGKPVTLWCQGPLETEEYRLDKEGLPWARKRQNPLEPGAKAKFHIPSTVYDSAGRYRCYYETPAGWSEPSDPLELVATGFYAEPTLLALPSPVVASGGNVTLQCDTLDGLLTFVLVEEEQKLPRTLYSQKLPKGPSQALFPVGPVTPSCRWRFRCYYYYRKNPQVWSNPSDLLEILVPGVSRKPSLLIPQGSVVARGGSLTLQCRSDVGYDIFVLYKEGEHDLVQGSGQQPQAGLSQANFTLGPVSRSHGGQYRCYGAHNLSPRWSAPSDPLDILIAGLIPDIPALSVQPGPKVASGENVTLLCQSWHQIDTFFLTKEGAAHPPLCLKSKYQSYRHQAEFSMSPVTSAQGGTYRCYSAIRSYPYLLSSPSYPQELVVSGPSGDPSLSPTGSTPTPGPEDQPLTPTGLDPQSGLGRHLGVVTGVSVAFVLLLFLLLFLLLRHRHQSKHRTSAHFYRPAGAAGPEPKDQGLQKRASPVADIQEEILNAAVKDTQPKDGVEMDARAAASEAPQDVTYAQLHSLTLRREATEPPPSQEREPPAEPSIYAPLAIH
# T7 sequence (Q8NHL6 other isoform, or with tags, fused parts or gaps limits assumed): as the sequence (Q8NHL6 24-650) above, with L45P, I119T, S132I, E602K counted along it
# T8 sequence (Q6PI73 24-481 limits assumed): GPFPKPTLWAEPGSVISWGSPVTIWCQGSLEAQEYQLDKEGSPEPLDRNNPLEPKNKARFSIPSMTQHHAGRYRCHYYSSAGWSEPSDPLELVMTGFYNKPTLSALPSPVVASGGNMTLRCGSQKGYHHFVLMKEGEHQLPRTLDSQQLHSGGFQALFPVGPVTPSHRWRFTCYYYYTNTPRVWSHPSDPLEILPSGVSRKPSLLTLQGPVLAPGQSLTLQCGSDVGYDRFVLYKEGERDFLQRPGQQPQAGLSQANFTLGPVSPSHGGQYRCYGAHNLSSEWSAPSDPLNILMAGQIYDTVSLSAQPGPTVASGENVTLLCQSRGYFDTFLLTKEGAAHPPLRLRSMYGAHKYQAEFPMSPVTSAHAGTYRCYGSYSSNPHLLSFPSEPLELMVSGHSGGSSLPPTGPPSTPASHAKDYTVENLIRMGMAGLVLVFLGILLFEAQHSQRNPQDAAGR
# T11 sequence (Q8N149 other isoform, or with tags, fused parts or gaps limits assumed): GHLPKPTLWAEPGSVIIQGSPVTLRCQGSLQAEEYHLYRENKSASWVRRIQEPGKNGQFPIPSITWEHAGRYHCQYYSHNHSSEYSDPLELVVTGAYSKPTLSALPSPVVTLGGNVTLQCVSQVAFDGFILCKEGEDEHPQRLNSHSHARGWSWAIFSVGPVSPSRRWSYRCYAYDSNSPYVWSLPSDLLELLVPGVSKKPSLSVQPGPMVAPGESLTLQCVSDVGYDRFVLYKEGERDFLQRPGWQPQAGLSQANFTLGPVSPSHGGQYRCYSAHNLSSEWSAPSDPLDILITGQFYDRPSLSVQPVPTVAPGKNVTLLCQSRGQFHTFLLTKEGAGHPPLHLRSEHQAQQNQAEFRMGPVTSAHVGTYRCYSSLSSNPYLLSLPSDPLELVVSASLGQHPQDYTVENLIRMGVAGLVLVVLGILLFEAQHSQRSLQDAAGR
binding result [1],binding result [2],binding result [3],binding result [4],binding result [5],binding result [6],EC50 [7] [nM],binding result [8],binding result [9],binding result [10],binding result [11],Kd [13] [nM],koff [13] [s⁻¹],kon [13] [M⁻¹ s⁻¹],Binder,% of population 2 [12] [%],Mean Fluorescence Intensity [12]
no binding (tested: 20 ug/mL),no binding (tested: 20 ug/mL),no binding (tested: 20 ug/mL),no binding (tested: 20 ug/mL),no binding (tested: 20 ug/mL),no binding (tested: 20 ug/mL),7.15,no binding (tested: 20 ug/mL),no binding (tested: 20 ug/mL),no binding (tested: 20 ug/mL),no binding (tested: 20 ug/mL),–,–,–,"anti-LILRB1 antibody E3.1 (antibody, human IgG4 S228P, lambda, human IgG4; heavy chain of E3; also called Antibody clone E3.1) heavy: not shown light: SYELTQDPAVSVALGQTVRITCQGDSLRNFYASWYQQKSGQAPVLVMYGKNNRPSGIPDRFSGSTSGNTASLTITGAQAEDEADYYCNSRDSSGSHLTGVFGGGTKVTVLGQPKANPTVTLFPPSSEELQANKATLVCLISDFYPGAVTVAWKADGSPVKAGVETTKPSKQSNNKYAASSYLSLTPEQWKSHRSYSCQVTHEGSTVEKTVAPTECS",–,–
no binding (tested: 20 ug/mL),no binding (tested: 20 ug/mL),no binding (tested: 20 ug/mL),no binding (tested: 20 ug/mL),no binding (tested: 20 ug/mL),–,0.376,no binding (tested: 20 ug/mL),no binding (tested: 20 ug/mL),–,–,7.62,0.00226,296000,"anti-LILRB1 antibody H11 (antibody, human IgG4 S228P, V domains shown, human IgG4, lambda light chain; also called Antibody clone H11) VH: QVQLVQSGAEVKKPGASVKVSCKASGYTFTSYYMHWVRQAPGQGLEWMGIINPSGGSTSYAQKFQGRVTMTRDTSTSTVYMELSSLRSEDTAVYYCARDAGSSSDYWGRGTLVTVSS VL: SYELTQDPAASVALGQTVRITCQGDSLRSYYASWYQQKPGQAPVVVIYGRNNRPSGIPDRFSGSSSGDTASLTITGAQAEDEADYYCKSRDSSGNHYVFGTGTKLTVLG",32.6,245000
